Data: PMC3765742 (2013)

Molecular target: M6P/IGF-IIR (Homo sapiens, UniProt P11717)
Assay: SPR

Sequence of M6P/IGF-IIR (P11717 41-2491): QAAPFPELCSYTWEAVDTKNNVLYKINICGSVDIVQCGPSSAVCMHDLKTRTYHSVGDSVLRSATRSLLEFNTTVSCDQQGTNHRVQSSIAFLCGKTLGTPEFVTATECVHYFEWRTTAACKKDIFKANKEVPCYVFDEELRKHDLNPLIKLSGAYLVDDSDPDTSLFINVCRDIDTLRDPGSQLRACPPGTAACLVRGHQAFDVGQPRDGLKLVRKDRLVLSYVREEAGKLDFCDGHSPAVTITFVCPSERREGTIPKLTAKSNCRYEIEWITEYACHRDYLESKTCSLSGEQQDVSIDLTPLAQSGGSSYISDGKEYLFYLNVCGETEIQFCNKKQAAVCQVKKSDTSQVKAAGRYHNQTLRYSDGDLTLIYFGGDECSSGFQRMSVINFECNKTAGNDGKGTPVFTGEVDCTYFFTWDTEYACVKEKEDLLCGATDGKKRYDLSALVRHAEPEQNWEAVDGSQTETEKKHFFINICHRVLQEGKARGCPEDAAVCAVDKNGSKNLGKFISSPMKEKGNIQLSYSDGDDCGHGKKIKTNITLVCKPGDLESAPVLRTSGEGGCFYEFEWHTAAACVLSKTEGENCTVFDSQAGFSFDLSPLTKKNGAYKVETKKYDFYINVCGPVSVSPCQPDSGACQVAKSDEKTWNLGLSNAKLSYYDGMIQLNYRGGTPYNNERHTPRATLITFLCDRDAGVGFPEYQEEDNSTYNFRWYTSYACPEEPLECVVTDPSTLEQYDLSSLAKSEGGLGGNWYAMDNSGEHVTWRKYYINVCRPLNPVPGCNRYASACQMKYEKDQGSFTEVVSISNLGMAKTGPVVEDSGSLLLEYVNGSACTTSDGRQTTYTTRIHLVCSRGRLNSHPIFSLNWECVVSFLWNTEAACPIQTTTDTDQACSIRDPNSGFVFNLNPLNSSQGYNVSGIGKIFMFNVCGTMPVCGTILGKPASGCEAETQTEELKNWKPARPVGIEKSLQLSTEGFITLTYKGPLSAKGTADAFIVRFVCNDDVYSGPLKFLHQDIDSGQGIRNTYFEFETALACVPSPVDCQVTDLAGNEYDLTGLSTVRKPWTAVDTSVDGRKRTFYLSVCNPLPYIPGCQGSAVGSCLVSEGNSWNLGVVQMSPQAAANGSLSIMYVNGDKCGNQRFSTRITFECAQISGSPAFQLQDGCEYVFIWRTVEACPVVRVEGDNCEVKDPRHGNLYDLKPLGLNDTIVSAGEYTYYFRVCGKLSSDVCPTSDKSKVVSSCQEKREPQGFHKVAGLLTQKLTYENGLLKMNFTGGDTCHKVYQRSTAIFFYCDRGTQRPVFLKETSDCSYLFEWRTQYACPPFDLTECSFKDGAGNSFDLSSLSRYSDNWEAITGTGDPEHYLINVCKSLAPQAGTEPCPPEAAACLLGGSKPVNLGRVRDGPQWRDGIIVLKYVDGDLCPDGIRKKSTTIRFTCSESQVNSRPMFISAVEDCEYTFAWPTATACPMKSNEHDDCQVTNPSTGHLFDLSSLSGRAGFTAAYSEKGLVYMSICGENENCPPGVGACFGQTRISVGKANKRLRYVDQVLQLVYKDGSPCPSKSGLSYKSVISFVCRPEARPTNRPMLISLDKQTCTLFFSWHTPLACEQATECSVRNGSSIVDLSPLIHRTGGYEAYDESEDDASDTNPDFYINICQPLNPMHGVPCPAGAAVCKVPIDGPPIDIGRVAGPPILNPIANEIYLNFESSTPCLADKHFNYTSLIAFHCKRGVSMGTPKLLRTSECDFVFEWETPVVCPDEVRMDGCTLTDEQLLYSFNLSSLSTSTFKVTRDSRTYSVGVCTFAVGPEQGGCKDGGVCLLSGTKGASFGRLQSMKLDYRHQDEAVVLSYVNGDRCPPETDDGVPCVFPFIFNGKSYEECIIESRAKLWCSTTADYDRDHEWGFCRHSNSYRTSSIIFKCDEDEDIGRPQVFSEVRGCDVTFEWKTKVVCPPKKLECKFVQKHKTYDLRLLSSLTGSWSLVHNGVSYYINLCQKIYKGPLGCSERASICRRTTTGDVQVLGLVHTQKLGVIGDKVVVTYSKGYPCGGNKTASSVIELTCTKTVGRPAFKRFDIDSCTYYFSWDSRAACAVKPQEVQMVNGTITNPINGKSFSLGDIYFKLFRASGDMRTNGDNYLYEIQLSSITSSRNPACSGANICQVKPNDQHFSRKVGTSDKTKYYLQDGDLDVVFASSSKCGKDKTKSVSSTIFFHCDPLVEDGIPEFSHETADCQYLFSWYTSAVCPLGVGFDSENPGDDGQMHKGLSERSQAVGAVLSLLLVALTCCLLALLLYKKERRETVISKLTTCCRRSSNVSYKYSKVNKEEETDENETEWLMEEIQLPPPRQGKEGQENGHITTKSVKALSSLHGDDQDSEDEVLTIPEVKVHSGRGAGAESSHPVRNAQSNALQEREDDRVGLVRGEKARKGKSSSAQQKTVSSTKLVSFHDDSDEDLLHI

B1: DPP-4 (protein)
chain: SRKTYTLTDYLKNTYRLKLYSLRWISDHEYLYKQENNILVFNAEYGNSSVFLENSTFDEFGHSINDYSISPDGQFILLEYNYVKQWRHSYTASYDIYDLNKRQLITEERIPNNTQWVTWSPVGHKLAYVWNNDIYVKIEPNLPSYRITWTGKEDIIYNGITDWVYEEEVFSAYSALWWSPNGTFLAYAQFNDTEVPLIEYSFYSDESLQYPKTVRVPYPKAGAVNPTVKFFVVNTDSLSSVTNATSIQITAPASMLIGDHYLCDVTWATQERISLQWLRRIQNYSVMDICDYDESSGRWNCLVARQHIEMSTTGWVGRFRPSEPHFTLDGNSFYKIISNEEGYRHICYFQIDKKDCTFITKGTWEVIGIEALTSDYLYYISNEYKGMPGGRNLYKIQLSDYTKVTCLSCELNPERCQYYSVSFSKEAKYYQLRCSGPGLPLYTLHSSVNDKGLRVLEDNSALDKMLQNVQMPSKKLDFIILNETKFWYQMILPPHFDKSKKYPLLLDVYAGPCSQKADTVFRLNWATYLASTENIIVASFDGRGSGYQGDKIMHAINRRLGTFEVEDQIEAARQFSKMGFVDNKRIAIWGWSYGGYVTSMVLGSGSGVFKCGIAVAPVSRWEYYDSVYTERYMGLPTPEDNLDHYRNSTVMSRAENFKQVEYLLIHGTADDNVHFQQSAQISKALVDVGVDFQAMWYTDEDHGIASSTAHQHIYTHMSHFIKQCFSLP
Q: For B1, which Kd is on record?
A: The Kd was 35.9 µM.
